System: MS2 coat protein
Experiment: apparent KD of MS2 coat protein; designed switch direction (-1 OFF switch, 1 ON switch): -1; higher = weaker reporter binding
Method in brief: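 Stalled E. coli RNA polymerase transcribed designed RNA switches on Illumina chips, which were then titrated with SNAP-549-labelled MS2 coat protein, doubling from 0.7 or 1.5 nM to 3 µM. Steps lasted from 0.8–1.5 h at the lowest concentration to 10–20 min at the highest. The apparent KD is each design's median over clusters of curve-fitted normalised fluorescence.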

[1] = input ligand: microRNA oligo, concentration not stated
[2] = Eterna round: R95, input ligand: FMN 200 uM
[3] = Eterna round: R95, input ligand: microRNA oligo, concentration not stated
[4] = Eterna round: R95, input ligand: none

| Sequence | apparent KD of MS2 coat protein (input ligand: FMN 200 uM) | apparent KD of MS2 coat protein (input ligand: none) | apparent KD of MS2 coat protein [3] | other results |
| --- | --- | --- | --- | --- |
| UACAUGAGGAUCACCCAUGUUUUGUCGUGUAUGGUAUUUAUCUAGGAUAUCAUAUUAUUUAGUUAUGAGAAGGAGAAUAUUAAU [JMF's solution 80] (Eterna round: R96, puzzle: Exclusion NG 3) | 24.9 nM | 19.3 nM | – | apparent KD of MS2 coat protein [1]: 12.7 nM |
| UGAUCUAGCGGAGGAUAUACAUGAGGAUCACCCAUGUAGACUCUAUGACCGUAGUCGUGGAGUGUGUAGAAGGCCGCUAGAUCU [JL ENG2 3.74] (Eterna round: R96, puzzle: Exclusion NG 2) | 14.3 nM | 12.6 nM | – | apparent KD of MS2 coat protein [1]: 9.24 nM |
| GCGCAGGUAGGAUAUCGAGCUAAGAACAUGAGGAUCACCCAUGUGUUCGGUAGCCAACUUCGAGAAGGACCAAAUA [Ceati] (puzzle: Exclusion 5) | – | – | 11.4 nM | apparent KD of MS2 coat protein [2]: 23.9 nM; apparent KD of MS2 coat protein [4]: 14.9 nM |
| CCCUCAAGCGAGGAUAUAAAUGCGCAUUCGCGGUUAGAAGGCGCUACAUGAGGAUCACCCAUGUAAUUGAAUGG [jl-ex6-4.52 ViennaUCT mod] (Eterna round: R97, puzzle: Exclusion 6) | 117 nM | 58.7 nM | – | – |
| ACGCAACAUGAGGAUCACCCAUGUGAGGAUAUGUAAAUAGUAAACAAAUAGGAAAUGAACAGAAGGCACACCGG [JR_Exclusion1_Sub005] (puzzle: Exclusion 1) | – | – | 32.5 nM | – |
| AAUCAACAUGAGGAUCACCCAUGUGAGGAUAUAGGCAUGCAUGCAUGCAUGCAUGCAACUAGAAGGCACAAUAC [Design #18] (Eterna round: R97, puzzle: Exclusion 1) | 58.2 nM | 37.4 nM | – | – |
| UUCCGGUGAGGAUAUUGCACGGUGGGAGAGAGCGCCACUGUCAAGAAGGUACAUGAGGAUCACCCAUGUGAGUA [Eternabot (L1) Solution 24] (Eterna round: R97, puzzle: Exclusion 4) | 21.1 nM | 25.1 nM | – | – |
| GAUUAUGCGAGCUUUAGGGACAUGAGGAUCACCCAUGUUCGUCUUAUUGAUCUGGGUACGCUAACAUACCUAAAUCU [JMF 42] (puzzle: Sensor v3, turn-off variant 1) | – | – | 89.2 nM | apparent KD of MS2 coat protein [2]: 82.2 nM; apparent KD of MS2 coat protein [4]: 96.7 nM |
| UUUUAACAUGAGGAUCACCCAUGUGAGGAUAUCGAAAUUUAUAUUUAUAUUAAUUUAACGAGAAGGCACAUUUU [JMF 87] (puzzle: Exclusion 1) | – | – | 84.4 nM | – |
| AAAAGAAGUGUUAGGAUAUGUGGAAGUAGAAAGACACAGAAGGGACAUGAGGAUCACCCAUGUGGCCAAAGAAC [Vecedies] (puzzle: Brourd's mod of Exclusion 4) | – | – | 15.6 nM | apparent KD of MS2 coat protein [2]: 17.3 nM; apparent KD of MS2 coat protein [4]: 15.5 nM |
| ACUUGUUGUCCUUGAUUUUACAUGAGGAUCACCCAUGUUAUUUUGAUUAUGAUGUGUAAGUUUGUUGCUCGUUUUAU [JR_STOV1_Sub067] (Eterna round: R97, puzzle: Sensor, turn-off variant 1) | 61.9 nM | 67.4 nM | – | – |
| CUUCGACAUGAGGAUCACCCAUGUCAGGAUAUUGUGUAUCGGGUUUUUUACGGAAAGGCGAGAAGGGAUGUGUG [LRO-Excl1-09] (puzzle: Exclusion 1) | – | – | 22 nM | – |
| AAUAACAGAGGAUAUACUGUUUUAUGUGUUUGUUGUUUUGAACAUGAGGAUCACCCAUGUAGAAGGCUGAGUAA [JMF 41] (puzzle: Exclusion 2) | – | – | 22.9 nM | – |
| AAUAACAGAGGAUAUACUGUUUUAUGUAUUUAUUAUUUUAAACAUGAGGAUCACCCAUGUAGAAGGCUGAAUAA [JMF 12] (puzzle: Exclusion 2) | – | – | 19.1 nM | – |
| CCAAGCUUAUUCAUUAACCACAUGAGGAUCACCCAUGUAUAGGCAAUUAUGACUGGGCUCUGUGGUGCUCGUCUUAU [Sensor-V1 #27] (Eterna round: R97, puzzle: Sensor, turn-off variant 1) | 146 nM | 143 nM | – | – |
| UCGGCGCUAGGAUAUGCGUCGAAAGACAUGAGGAUCACCCAUGUGGUGCUCCUUAUUAAAGCAGAAGGAGCCCGUA [EX5 A.17] (Eterna round: R97, puzzle: Exclusion 5) | 300 nM | 152 nM | – | – |
| CGGGAGGAAGGAUAUACACGGCCUCCUAGAAUAAAUCCUGGACAUGAGGAUCACCCAUGUAGAAGGUCCACCGA [Tiuslala] (puzzle: Exclusion 2) | – | – | 17.3 nM | – |
| UUCCUCGUUGUGAGGAUAUCGUCCUAUUUUUGUUACGAGAAGGCACAUGAGGAUCACCCAUGUUACUUGAUGUU [JR_BMOE4_Sub071] (puzzle: Brourd's mod of Exclusion 4) | – | – | 21.2 nM | – |

| Sequence | apparent KD of MS2 coat protein (input ligand: FMN 200 uM) | apparent KD of MS2 coat protein (input ligand: none) | apparent KD of MS2 coat protein [3] | other results |
| --- | --- | --- | --- | --- |
| GGAAAAAUAUAGGAUAUGGGAGGGAGGACCGAACCAGAAGGAUAGACAUGAGGAUCACCCAUGUAAAGAUCCUC [AK-MS2ROC-r4-exclusion6-6] (Eterna round: R97, puzzle: Exclusion 6) | 377 nM | 204 nM | – | – |
| CGCAAUGGAGGAUAUACAUGAGGAUCACCCAUGUGGUCCUUGAGAUUCCAAAAGUCAAGUAGAAGGUCAGCGGC [Eternabot (L1) Solution 45] (Eterna round: R97, puzzle: Exclusion 3) | 1210 nM | 1600 nM | – | – |
| AAUUUACAUGAGGAUCACCCAUGUGAGGAUAUAUGUUUAAAUUUUUUUUUUUUUUUUCAUAGAAGGCGCGUGAU [JR_Exc1_Sub048] (Eterna round: R97, puzzle: Exclusion 1) | 17.3 nM | 31.6 nM | – | – |
| GAUUAUGCGAGCUUUAGGGACAUGAGGAUCACCCAUGUUCGUCUUAUUGGUCUAGAUACACUAACAUACCUAAAUCU [JMF 12] (puzzle: Sensor v3, turn-off variant 1) | – | – | 21.4 nM | apparent KD of MS2 coat protein [2]: 15.2 nM; apparent KD of MS2 coat protein [4]: 17.4 nM |
| GGCAUGUAAGGAUAUGCCACUGAGUGCUUUGCGCUCAGGAAGCAGAAGGUACAUGAGGAUCACCCAUGUGAUAA [jl-ex4-4.52 ViennaUCT mod] (Eterna round: R97, puzzle: Exclusion 4) | 109 nM | 714 nM | – | – |
| GGUCCACGAGGAUAUCGAUUUUAGUACAUGAGGAUCACCCAUGUUGUCCAGGUUUCGAUUCGAGAAGGCGUGGGCC [LRO-Ex5-03] (puzzle: Exclusion 5) | – | – | 20.3 nM | – |
| AGUACUAACACGUUAGUGUUAGUACAAUAAGCUUGUGAAACAUGAGGAUCACCCAUGUCCUCAUAAGCUCGUCUUAU [salish99_TOv2_r3_056] (Eterna round: R96, puzzle: Sensor v3, turn-off variant 2) | 16 nM | 17.9 nM | – | apparent KD of MS2 coat protein [1]: 466 nM |
| GUAGAGUCAGGAUAUACGAGAUCGAAAGAUCUUUGAUCCUAACAUGAGGAUCACCCAUGUAGAAGGGACUCUAC [Omei mod 3 to Eli's favorate candidate (ch.parushev)] (Eterna round: R97, puzzle: Exclusion 2) | 698 nM | 58 nM | – | – |
| UAUUAGCAAGCGAGGUCCCACAUGAGGAUCACCCAUGUGCUCGUCUUAUAAGGUACUGUGACGAAAGUCACGGUACC [Sensor 3, v1 - 91 v8] (Eterna round: R97, puzzle: Sensor, turn-off variant 1) | 14.7 nM | 13.1 nM | – | – |
| UUUAGUUCAGGAUAUGUAGAAAUUAACAUGAGGAUCACCCAUGUAGAUCCUGAAUUAACUACAGAAGGGAACAUUU [JL-ex5-4.43 Brourd mod] (Eterna round: R97, puzzle: Exclusion 5) | 51.3 nM | 15.7 nM | – | – |
| AAGGGUACUUUCGGAACGACAUGAGGAUCACCCAUGUAGACUGAGGAUAUCUGCUACUAAGGACGGGAGAAGGCAGUGUAAUGU [Ex NG3 #75] (Eterna round: R96, puzzle: Exclusion NG 3) | 18.5 nM | 18.7 nM | – | apparent KD of MS2 coat protein [1]: 12.8 nM |
| UUUGUUGUUGUGAGGAUAUCGUAGUUAUUUUGAAACGAGAAGGCACAUGAGGAUCACCCAUGUUUGUUGAUGGU [JR_BMOE4_Sub062] (puzzle: Brourd's mod of Exclusion 4) | – | – | 32.4 nM | – |
| GGUACUCAAAGAGUACCAAUACGAACAUGAGGAUCACCCAUGUAGGAUAUGCUACUCAAAGAGUAGCAGAAGGAUAUGAACCUU [Far Half Aptamer v9] (Eterna round: R96, puzzle: Exclusion NG 3) | 22.5 nM | 23.8 nM | – | apparent KD of MS2 coat protein [1]: 15.5 nM |
| UCUCAACAUGAGGAUCACCCAUGUGAGGAUAUGAUGCAGCAGUGGUCUACGCUGUGCAUCAGAAGGCACAUGUG (puzzle: Exclusion 1) | – | – | 119 nM | – |
| UUUAUAAUUUCAAUCUUCGCCAGCAAACUAACACUGGCCACAUGAGGAUCACCCAUGUUUUUUGUUCGUUUUAUUCU [Cesoorso] (puzzle: Sensor v3, turn-off variant 2) | – | – | 62.9 nM | apparent KD of MS2 coat protein [2]: 21.6 nM; apparent KD of MS2 coat protein [4]: 23.3 nM |
| CCGGUAAAGGAGGAUAUAGGAGUCGAUAGACACCUAGAAGGCCUGACAUGAGGAUCACCCAUGUGUCCUACCGG [Fiskers Ex 6 - 93] (puzzle: Exclusion 6) | – | – | 14.1 nM | apparent KD of MS2 coat protein [2]: 23.7 nM; apparent KD of MS2 coat protein [4]: 13.5 nM |
| GUAAUGCUGCGAGGAUAUACAUGAGGAUCACCCAUGUGGAUGUCUGAGGCAAAGCCUCAGACGAUGUAGAAGGCGCAGUAAAAU [Mat - Exclusion NG 2 - Mod of JL - D54] (Eterna round: R96, puzzle: Exclusion NG 2) | 85.7 nM | 44.4 nM | – | apparent KD of MS2 coat protein [1]: 17.6 nM |
| CAGGAUAGAGGAUAUACAUAGAUACAGAUUCAUGUGAUCCUACAUGAGGAUCACCCAUGUAGAAGGCUAUCCUG [Fiskers Ex 2 - 21] (puzzle: Exclusion 2) | – | – | 240 nM | – |

— the supplement of paper PMC9170038
